{"source": "patent US5389611A", "about": "“Lactoferrin hydrolyzate for use as an antibacterial agent and as a tyrosinase inhibition agent” (priority 1990, dated 1995)", "origin": "cited, not measured here", "key": {"[1]": {"tested_on": "coliform bacillus (Escherichia coli), staphylococcus and other enterobacteria", "details": "Nonnecke and Smith 1984"}, "[2]": {"details": "Ford et al 1977"}}, "note": "Read-outs that look alike come from different tables or passages of the source."}
{"substance": "lactoferrin", "values": [{"measurement": "concentration having antibacterial activity", "setting": "[1]", "result": "0.5 to 30", "unit": "mg/mL"}, {"measurement": "antibacterial activity after heating", "setting": "[2]; heating at 62.5° C. for 30 minutes", "result": "almost completely suppressed"}, {"measurement": "antibacterial activity after heating", "setting": "[2]; heating at 70° C. for 15 minutes", "result": "complete deactivation"}]}
